Assay results as given in paper PMC8348300.

Key:
human alpha-thrombin [1] = molecular target: T1, human alpha-thrombin (Homo sapiens, UniProt P00734;P00734 328-363;364-622); test: SPR; 10 mM KCl; text of 3.2 gives 97.5 nM; SPR (OpenSPR, immobilized thrombin): PBS, 0.005% Tween 20, 10 mM KCl, pH 7.4; TBA 1-16 uM (1-8 uM per Results), annealed 95 C 5 min then cooled to room temperat
human alpha-thrombin [2] = molecular target: T1, human alpha-thrombin; test: SPR; 10 mM KCl; SPR (OpenSPR, immobilized thrombin): PBS, 0.005% Tween 20, 10 mM KCl, pH 7.4; TBA 1-16 uM (1-8 uM per Results), annealed 95 C 5 min then cooled to room temperat
human alpha-thrombin [3] = molecular target: T1, human alpha-thrombin; test: SPR; 10 mM KCl; text of 3.2 gives 99 nM; SPR (OpenSPR, immobilized thrombin): PBS, 0.005% Tween 20, 10 mM KCl, pH 7.4; TBA 1-16 uM (1-8 uM per Results), annealed 95 C 5 min then cooled to room temperat
human alpha-thrombin [4] = molecular target: T1, human alpha-thrombin; test: SPR; 10 mM KCl; text of 3.2 gives 99.8 nM; SPR (OpenSPR, immobilized thrombin): PBS, 0.005% Tween 20, 10 mM KCl, pH 7.4; TBA 1-16 uM (1-8 uM per Results), annealed 95 C 5 min then cooled to room temperat

Binder	Kd (human alpha-thrombin [2])	further results
GGTTGGTGTGGTTGG (structured_DNA, T13: C5 NHS-carboxy-dT) [13NHT]		Kd (human alpha-thrombin [1]): 99.7 nM
GGTTGGTGTGGTTGG (structured_DNA) [TBA (native)]	99.8 nM	
GGTTGGTGTGGTTGG (structured_DNA, T4: C5 NHS-carboxy-dT) [4NHT]		Kd (human alpha-thrombin [3]): 102 nM
GGTTGGTGTGGTTGG (structured_DNA, 5' Long Trebler dendrimer (three arms with terminal hydroxyls)) [5LTG]	99.6 nM	
GGTTGGTGTGGTTGG (structured_DNA, 5' Trebler dendrimer (three arms with terminal hydroxyls)) [5TG]	102 nM	
GGTTGGTGTGGTTGG (structured_DNA, T4 and T13: C5 NHS-carboxy-dT) [413NHT]		Kd (human alpha-thrombin [4]): 102 nM
